Assay results as given in PMC4136804.

Legend:
GST-tagged SUMO-2 = GST-tagged SUMO-2 (UniProt P61956); experiment: pull-down; as the plate assay, equal cpm of radiolabeled protein per well, eluted protein counted by liquid scintillation; mean of three experiments, compared with GST alone
GST-tagged SUMO-2(x3) = experiment: as above
Sequence of GST-tagged SUMO-2(x3) (main, as listed by the source): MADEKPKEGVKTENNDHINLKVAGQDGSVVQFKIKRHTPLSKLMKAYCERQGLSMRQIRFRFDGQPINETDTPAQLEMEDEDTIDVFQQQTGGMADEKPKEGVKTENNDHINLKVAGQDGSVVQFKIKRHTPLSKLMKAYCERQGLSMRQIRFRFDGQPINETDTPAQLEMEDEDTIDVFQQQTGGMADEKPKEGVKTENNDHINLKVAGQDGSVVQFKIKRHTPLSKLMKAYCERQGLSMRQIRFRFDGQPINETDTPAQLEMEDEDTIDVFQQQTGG

Sequence of pyruvate kinase fused with a single MYM-type zinc finger of ZNF261 (domain or fragment) (Q14202 327-738): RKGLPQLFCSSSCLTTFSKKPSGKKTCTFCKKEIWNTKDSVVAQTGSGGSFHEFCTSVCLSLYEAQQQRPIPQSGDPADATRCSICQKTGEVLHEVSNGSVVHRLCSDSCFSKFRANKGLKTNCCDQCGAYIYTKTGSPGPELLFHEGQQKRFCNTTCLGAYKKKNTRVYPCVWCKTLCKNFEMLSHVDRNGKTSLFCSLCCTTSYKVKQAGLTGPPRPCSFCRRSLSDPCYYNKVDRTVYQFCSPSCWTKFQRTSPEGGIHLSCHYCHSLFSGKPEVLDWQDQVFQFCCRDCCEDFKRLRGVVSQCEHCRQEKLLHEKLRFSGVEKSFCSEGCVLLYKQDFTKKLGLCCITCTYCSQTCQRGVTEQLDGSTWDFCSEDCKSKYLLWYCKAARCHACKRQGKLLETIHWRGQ
Sequence of pyruvate kinase fused with the first two MYM-type zinc fingers of ZNF261 (domain or fragment) (Q14202 327-738): as above

| fold increase in binding compared to GST alone (GST-tagged SUMO-2) | fold increase in binding compared to GST alone (GST-tagged SUMO-2(x3)) | fold increase in binding over the single-finger fusion (GST-tagged SUMO-2) | fold increase in binding over the single-finger fusion (GST-tagged SUMO-2(x3)) | Substance |
| --- | --- | --- | --- | --- |
| 1.5 fold | 3 fold | – | – | pyruvate kinase fused with a single MYM-type zinc finger of ZNF261 (domain or fragment) |
| – | – | > 2 fold | > 2 fold | pyruvate kinase fused with the first two MYM-type zinc fingers of ZNF261 (domain or fragment) |
